Assay [1] has as its target (1-methylalkyl)succinate synthase catalytic α-subunit (MASSα), protein product of masD (Azoarcus sp. strain HxN1). Kind of assay: cryo-EM structure; single-particle cryo-EM of the co-expressed, purified MASS complex (SEC fractions with dimeric MASSα), grids prepared anaerobically, 0.8 mg/mL, fumarate and DTT bound; 2.8 Å map (a first data set gave 7 Å).
The target of assay [2] is T1, MASS; (1-methylalkyl)succinate synthase; MASSα2βγ2δ complex (Azoarcus sp. HxN1, UniProt A9J4K4).
T1 construct: gene masD; full-length subunits co-expressed in E. coli NiCo21(DE3); N-terminal His tag on MASSα; asymmetric alpha2-beta-gamma2-delta complex; [4Fe-4S] in beta and gamma, single Fe in delta; with (1-methylalkyl)succinate synthase beta subunit; (1-methylalkyl)succinate synthase gamma subunit; (1-methylalkyl)succinate synthase delta subunit (rubredoxin-like)
In words: cryo-EM structure of the complex, […] Å. The class given is binding. The conditions noted are these: active site of MASSα (αβγδ side); anaerobic; no alkane present; DTT modelled in hydrocarbon site; no glycyl radical activation described.

T1 sequence (A9J4K4 1-839): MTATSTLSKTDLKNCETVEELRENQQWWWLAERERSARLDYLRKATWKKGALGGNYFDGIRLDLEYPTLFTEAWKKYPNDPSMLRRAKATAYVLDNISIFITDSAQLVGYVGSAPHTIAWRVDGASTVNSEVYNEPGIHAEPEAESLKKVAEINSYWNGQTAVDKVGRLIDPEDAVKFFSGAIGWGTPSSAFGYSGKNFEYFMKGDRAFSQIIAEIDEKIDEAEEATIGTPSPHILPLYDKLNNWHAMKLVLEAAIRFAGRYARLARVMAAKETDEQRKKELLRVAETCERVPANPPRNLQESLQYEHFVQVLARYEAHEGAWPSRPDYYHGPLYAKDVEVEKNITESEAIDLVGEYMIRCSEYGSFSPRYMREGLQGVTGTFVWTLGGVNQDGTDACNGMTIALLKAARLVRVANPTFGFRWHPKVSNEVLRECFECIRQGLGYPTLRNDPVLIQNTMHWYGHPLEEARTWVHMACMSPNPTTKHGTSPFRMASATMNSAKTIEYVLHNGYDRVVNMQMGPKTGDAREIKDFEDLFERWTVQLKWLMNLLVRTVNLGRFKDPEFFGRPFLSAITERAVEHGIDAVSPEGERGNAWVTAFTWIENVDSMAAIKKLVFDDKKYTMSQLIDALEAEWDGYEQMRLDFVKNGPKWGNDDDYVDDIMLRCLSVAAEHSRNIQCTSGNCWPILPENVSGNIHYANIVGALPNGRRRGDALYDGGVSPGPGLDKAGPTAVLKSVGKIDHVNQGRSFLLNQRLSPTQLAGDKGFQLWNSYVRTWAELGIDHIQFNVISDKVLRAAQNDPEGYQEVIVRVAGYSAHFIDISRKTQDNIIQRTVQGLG
T1 sequence (A9J4K2 1-61 partner): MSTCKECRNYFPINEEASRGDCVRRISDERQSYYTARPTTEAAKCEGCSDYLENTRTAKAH
T1 sequence (A9J4K0 1-120 partner): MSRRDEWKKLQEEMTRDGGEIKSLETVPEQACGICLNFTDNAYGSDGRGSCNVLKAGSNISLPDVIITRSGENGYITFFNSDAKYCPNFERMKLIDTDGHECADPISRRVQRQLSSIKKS
T1 sequence (A9J4K6 1-71 partner): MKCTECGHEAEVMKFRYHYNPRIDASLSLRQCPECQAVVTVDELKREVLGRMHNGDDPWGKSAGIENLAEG

The stoichiometry N is the number of molecules, sites or subunits per partner or assembly. For “(1-methylalkyl)succinate synthase catalytic α-subunit (MASSα), protein product of masD (enzyme)”, the stoichiometry N in assay [1] is 2.

In the case of `O=C(O)/C=C/C(=O)O` [fumarate], in assay [2], the “cryo-EM structure of the complex, 2.8 Å” value is “Density was observed for fumarate in a similar location as was observed for the fumarate”.
